Kd data for 20 sequences are collected here from the Immune Epitope Database (IEDB).

Among the targets are HLA-A*33:01; HLA-A*31:01; HLA-A*03:01; HLA-A*11:01; HLA-A*68:01.
Assay in all cases: IEDB peptide-MHC binding, purified MHC/competitive/radioactivity; filed as Kd, often an IC50 or EC50 that approximates it; ≥ and ≤ were set here for values at or beyond the usual limits of such assays
Where [1] appears, read: source organism: Vaccinia virus WR.
The mark [2] stands for this setting: source organism: Mammarenavirus brazilense.
The mark [3] stands for this setting: source organism: SARS coronavirus Tor2.
Setting [4] is: source organism: Triticum aestivum.

Broadly, the Kd is the concentration at which binding is half-saturated. IVQLPKRGVR: the Kd was 12500 nM with HLA-A*33:01 (setting [1]); 1230 nM in the experiment with HLA-A*31:01 (setting [1]); 15800 nM with HLA-A*03:01 (setting [1]); at least 25700 nM with HLA-A*11:01 (setting [1]); 19000 nM in the experiment with HLA-A*68:01 (setting [1]).
Turning to QFNQMMNPSH, the Kd with HLA-A*33:01 (setting [2]) was at least 70000 nM; with HLA-A*31:01 (setting [2]) it was at least 20200 nM; with HLA-A*03:01 (setting [2]), at least 70000 nM; with HLA-A*11:01 (setting [2]) it was at least 69700 nM; with HLA-A*68:01 (setting [2]), at least 70100 nM.
On to LQMAGVEVR, for which the Kd with HLA-A*33:01 (setting [1]) was found to be 6150 nM; with HLA-A*31:01 (setting [1]), 218 nM; in the experiment with HLA-A*03:01 (setting [1]), 13900 nM; with HLA-A*11:01 (setting [1]) it was 5760 nM; in the experiment with HLA-A*68:01 (setting [1]), 2380 nM.
Take KCFEKFLEPK: the equilibrium dissociation constant (Kd) with HLA-A*33:01 (setting [2]) was at least 23100 nM; with HLA-A*31:01 (setting [2]), 1030 nM; in the experiment with HLA-A*03:01 (setting [2]), 1270 nM; in the experiment with HLA-A*11:01 (setting [2]) it was 16900 nM; in the experiment with HLA-A*68:01 (setting [2]), 3470 nM.
Turning to YLALYNKYK, the Kd in the experiment with HLA-A*33:01 (setting [3]) amounted to 7980 nM; in the experiment with HLA-A*31:01 (setting [3]), 941 nM; with HLA-A*03:01 (setting [3]) it was 201 nM; with HLA-A*11:01 (setting [3]), 1320 nM; with HLA-A*68:01 (setting [3]) it was 913 nM.
Turning to YIWIKNLETY, the Kd with HLA-A*33:01 (setting [1]) is 4480 nM; with HLA-A*31:01 (setting [1]), 1740 nM; with HLA-A*03:01 (setting [1]), 1460 nM; with HLA-A*11:01 (setting [1]) it was 3440 nM; with HLA-A*68:01 (setting [1]) it was 161 nM.
VVRDFENYVK: the Kd with HLA-A*33:01 (setting [1]) was 8050 nM; with HLA-A*31:01 (setting [1]) it was 269 nM; in the experiment with HLA-A*03:01 (setting [1]), 24.9 nM; in the experiment with HLA-A*11:01 (setting [1]) it was 30.7 nM; with HLA-A*68:01 (setting [1]) it was 71.3 nM.
Consider AISSRVDRY, for which the Kd with HLA-A*33:01 (setting [1]) is at least 77700 nM; with HLA-A*31:01 (setting [1]) it was 18700 nM; in the experiment with HLA-A*03:01 (setting [1]) it was 5010 nM; with HLA-A*11:01 (setting [1]) it was 164 nM; in the experiment with HLA-A*68:01 (setting [1]), 4740 nM.
In the case of DLIAMENLK, the Kd is 586 nM with HLA-A*33:01 (setting [1]); 19500 nM in the experiment with HLA-A*31:01 (setting [1]); at least 33500 nM with HLA-A*03:01 (setting [1]); 1350 nM in the experiment with HLA-A*11:01 (setting [1]); 16.2 nM with HLA-A*68:01 (setting [1]).
The like results for AALDGTFQRK were, in that order, at least 70000 nM, 4280 nM, 49.4 nM, 8.05 nM and 8290 nM.
As to GLSLQDYCY, the Kd is 8680 nM in the experiment with HLA-A*33:01 (setting [1]); at least 37800 nM in the experiment with HLA-A*31:01 (setting [1]); 3100 nM in the experiment with HLA-A*03:01 (setting [1]); 361 nM with HLA-A*11:01 (setting [1]); at least 29500 nM in the experiment with HLA-A*68:01 (setting [1]).
In the case of KAKWLTPFEK, the Kd with HLA-A*33:01 (setting [1]) was at least 70000 nM; with HLA-A*31:01 (setting [1]) it was 115 nM; in the experiment with HLA-A*03:01 (setting [1]), 212 nM; with HLA-A*11:01 (setting [1]), 249 nM; with HLA-A*68:01 (setting [1]) it was 11800 nM.
As to ILSDENYLLK, the Kd with HLA-A*33:01 (setting [1]) was determined as 14400 nM; with HLA-A*31:01 (setting [1]), 17000 nM; with HLA-A*03:01 (setting [1]), 57.5 nM; with HLA-A*11:01 (setting [1]), 29 nM; with HLA-A*68:01 (setting [1]), 2530 nM.
Take VMCGGSLYVK: the Kd with HLA-A*33:01 (setting [3]) is 16300 nM; with HLA-A*31:01 (setting [3]), 648 nM; in the experiment with HLA-A*03:01 (setting [3]), 58.4 nM; with HLA-A*11:01 (setting [3]), 46.6 nM; in the experiment with HLA-A*68:01 (setting [3]), 8480 nM.
Take SFIISTLNK: the Kd with HLA-A*33:01 (setting [1]) turned out to be 8110 nM; with HLA-A*31:01 (setting [1]), 5.1 nM; in the experiment with HLA-A*03:01 (setting [1]), 57.4 nM; with HLA-A*11:01 (setting [1]), 5.35 nM; with HLA-A*68:01 (setting [1]), 9.98 nM.
With AIFTYTGGY, the Kd in the experiment with HLA-A*33:01 (setting [1]) was at least 77700 nM; with HLA-A*31:01 (setting [1]), 7160 nM; with HLA-A*03:01 (setting [1]), 287 nM; with HLA-A*11:01 (setting [1]) it was 282 nM; with HLA-A*68:01 (setting [1]) it was 8380 nM.
Consider MLVYCFLGY, for which the dissociation constant Kd is 7380 nM with HLA-A*33:01 (setting [3]); 907 nM with HLA-A*31:01 (setting [3]); 136 nM in the experiment with HLA-A*03:01 (setting [3]); 120 nM in the experiment with HLA-A*11:01 (setting [3]); 1140 nM in the experiment with HLA-A*68:01 (setting [3]).
MLDTSEKYSK: the Kd is at least 70000 nM with HLA-A*33:01 (setting [1]); at least 22300 nM with HLA-A*31:01 (setting [1]); 17300 nM in the experiment with HLA-A*03:01 (setting [1]); 107 nM with HLA-A*11:01 (setting [1]); 4320 nM with HLA-A*68:01 (setting [1]).
For the sequence GTDDEVIER, the Kd with HLA-A*33:01 (setting [1]) was 1170 nM; with HLA-A*31:01 (setting [1]) it was 2230 nM; with HLA-A*03:01 (setting [1]), at least 63500 nM; with HLA-A*11:01 (setting [1]), 369 nM; in the experiment with HLA-A*68:01 (setting [1]) it was 634 nM.
With VVLQQHNIVH, the Kd is at least 28300 nM with HLA-A*33:01 (setting [4]); 5200 nM in the experiment with HLA-A*31:01 (setting [4]); 2020 nM in the experiment with HLA-A*03:01 (setting [4]); 4630 nM in the experiment with HLA-A*11:01 (setting [4]); at least 29600 nM with HLA-A*68:01 (setting [4]).
